Laboratory results published in US6180362A, “Peptides which inhibit ras protein activity, their preparation and use” (Rhone-Poulenc Rorer S.A., priority 1992, dated 2001).

B1: P9: Peptide SEQ ID No. 4, purified as GST fusion protein and separated from GST by thrombin cleavage (protein)
chain: GGGFPPLPPPPYLPPLGAGLGTVDEGDSLDGPEYEEEEVAIPLTAPPTNQWYHGKLDRTIAEERLRQAGKSGSYLIRESDRRPGSFVLSFLSQMNVVNHFRIIAMCGDYYIGGRRFSSLSDLIGYYSHVSCLLKGEKLLYPVAPPEPVEDRRRVRAILPYTKVPDTDEISFLKGDMFIVHNELEDGWMWVTNLRTDEQGLIVEDLVEEVGREEDPHEGKIWFHGKISKQEAYNLLMTVGQVCSFLVRPSDNTPGDYSLYFRTNENIQRFKICPTPNNQFMMGGRYYNSIGDIIDHYRKEQIVEGYYLKEPVPMQDQEQVLNDTVDGKEIYNTIRRKTKDAFYKNIVKKGYLLKKGKGKRWKNLYFILEGSDAQLIYFESEKRATKPKGLIDLSVCSVYVVHDSLFGRPNCFQIVVQHFSEEHYIFYFAGETPEQAEDWMKGLQAFCNLRKSSPGTSNKRLRQVSSLVLHIEEAHKLPVKHFTNPYCNIYLNSVQVAKTHAREGQNPVWSEEFVFDD
B2: [768-860] PLCγ: fragment of identical length prepared by the same techniques from type γ human phospholipase C (protein, UniProt P19174 768-860, looked up, fragment)
chain: EPDYGALYEGRNPGFYVEANPMPTFKCAVKALFDYKAQREDELTFIKSAIIQNVEKQEGGWWRGDYGGKKQLWFPSNYVEEMVNPVALEPERE
B3: [275-351] GAP: fragment of the protein GAP holding the effector region, about residues 275 to 350; peptide SEQ ID No. 2 (protein)
chain: APPEPVEDRRRVRAILPYTKVPDTDEISFLKGDMFIVHNELEDGWMWVTNLRTDEQGLIVEDLVEEVGREEDPHEGKI

Key:
[1] = test system: maturation of Xenopus eggs induced by p21 ras Lys12; test: Maturation of Xenopus eggs (oocytes) induced by ras, % GVBD; format: cell-based, Xenopus laevis; conditions: microinjection into oocyte cytoplasm together with ras p21 protein; GVBD after 18 hours
Description: Xenopus laevis frogs were obtained from CNRS (Montpellier, France). The frogs are anaesthetized in ice-water and fragments of the ovaries are removed surgically and transferred to a modified Barth medium (Hirai et al., Dev. Biol. 100 (1984) 214). The stage VI oocytes are recovered by agitating the oocyte aggregates for 2 hours at ambient temperature in the presence of 2 mg/ml of collagenase (Sigma). For analysis of the maturation induced by ras, 40 nl of the protein in modified Barth medium are introduced into the cytoplasm of the oocytes by microinjection, either alone or in the presence of various concentrations of anti-GAP antibodies. For analysis of the maturation induced by hormones, the oocytes are incubated in the presence of insulin (10 μg/ml) and zinc chloride (10 μM) (bovine pancreatic insulin, Sigma) or progesterone (1 μM). The oocytes are kept at 20° C. in modified Barth medium, and the […] germinal vesicle breakdown (GVBD) is determined after incubation for 18 hours by dissection of the oocytes, which have been fixed beforehand in the presence of 5% of trichloroacetic acid. The results are expressed by the % GVBD on groups of oocytes.
E.3.1. The biological activity of the peptides according to the invention was studied by measuring their effect on the maturation of Xenopus eggs induced by p21 ras Lys12, by insulin or by progesterone.
The protocol used is the same as that described in Example E.1.1. above. The activity is measured by microinjection into the cytoplasm of the oocytes of 40 nl of the ras p21 protein in modified Barth medium, either alone or in the presence of various peptides according to the invention in varying concentrations. The results are expressed by the % of GVBD over the groups of oocytes. The results are shown on FIG. 3.

[2] = test system: NIH 3T3 cells cotransfected with oncogenic Ha-ras Val12; test: Formation of foci of transformed cells; format: cell-based; conditions: foci formation test, result in words
Description: The activity of P9 was then evaluated in a test for formation of foci of transformed cells. The cancerous cells in fact have the property of forming transformation foci, and in particular fibroblasts NIH 3T3 expressing an oncogenic ras. The cells NIH 3T3 were cultured in DMEM medium (Dulbecco's modified Eagle medium) comprising 10% of foetal calf serum at 37° C. in a humid environment containing 5% of CO2. The plasmids pSV2-GAP and pSV2-P9 were constructed by inserting the nucleotide sequences coding for GAP and for P9 (SEQ ID No. 4) into the vector SV2. The cells NIH 3T3 were cotransfected with an oncogenic ras Ha-ras Va112, the plasmide indicated in the table, and a 10-fold excess of the gene having resistance to neomycin by the technique of transfection with cationic lipids (Schweighoffer et al., Science 256 (1992) 825). The same amount of total DNA is transfected for each dish. 24 hours after transfection, the transfected cells originating from each Petri dish (100 mm) are divided in a ratio of 1 to 10 and cultured in the same medium but in the presence of G418 (Gibco/BRL) in an amount of 0.4 mg/ml of medium. The number of transformation foci obtained per μg of transfected DNA is compatibilized after culture for 14 days. They represent the mean of four independent tests.

[3] = molecular target: T1, GAP-p21 interaction (Ha-ras p21-GTP and GAP) (Homo sapiens, UniProt P20936); test: GAP-stimulated GTPase reaction of Ha-ras p21-GTP (GAP-p21 interaction); format: biochemical
T1 construct: GST (glutathione S-transferase) (N); made in house; host or cells: E. coli (crude cytosol for GAP)
T1 sequence (P20936 1-1047): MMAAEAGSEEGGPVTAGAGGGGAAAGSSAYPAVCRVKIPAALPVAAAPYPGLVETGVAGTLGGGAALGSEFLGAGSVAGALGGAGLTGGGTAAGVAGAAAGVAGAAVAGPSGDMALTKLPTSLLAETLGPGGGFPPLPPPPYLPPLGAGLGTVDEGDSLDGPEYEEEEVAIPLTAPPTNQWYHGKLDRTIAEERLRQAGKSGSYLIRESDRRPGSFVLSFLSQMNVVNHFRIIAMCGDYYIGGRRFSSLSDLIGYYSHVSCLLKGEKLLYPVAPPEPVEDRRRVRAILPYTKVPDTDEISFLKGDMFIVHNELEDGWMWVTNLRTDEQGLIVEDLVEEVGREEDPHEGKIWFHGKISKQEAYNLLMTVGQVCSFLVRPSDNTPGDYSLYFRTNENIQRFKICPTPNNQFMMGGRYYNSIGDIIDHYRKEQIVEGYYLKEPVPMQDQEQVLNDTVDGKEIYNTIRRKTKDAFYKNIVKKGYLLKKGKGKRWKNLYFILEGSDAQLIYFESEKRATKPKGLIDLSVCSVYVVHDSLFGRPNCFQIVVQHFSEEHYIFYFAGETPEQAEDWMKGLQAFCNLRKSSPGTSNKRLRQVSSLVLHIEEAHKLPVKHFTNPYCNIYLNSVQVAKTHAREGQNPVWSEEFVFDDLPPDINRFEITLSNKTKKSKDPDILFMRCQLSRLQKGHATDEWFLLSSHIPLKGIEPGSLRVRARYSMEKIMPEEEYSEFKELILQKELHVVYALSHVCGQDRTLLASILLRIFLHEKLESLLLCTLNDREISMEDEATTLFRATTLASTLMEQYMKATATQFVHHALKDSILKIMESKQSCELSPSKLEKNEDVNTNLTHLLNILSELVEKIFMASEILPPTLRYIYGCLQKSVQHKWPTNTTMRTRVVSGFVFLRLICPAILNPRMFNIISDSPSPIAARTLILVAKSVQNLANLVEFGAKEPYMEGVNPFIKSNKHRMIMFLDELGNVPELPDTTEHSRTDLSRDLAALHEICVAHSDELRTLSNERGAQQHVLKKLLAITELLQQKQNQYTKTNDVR
Description: E.1.2. Absence of an effect of the Ac200 antibody on the GAP-p21 interaction The interaction between GAP and the complex p21-GTP is determined in accordance with the following protocol. The normal protein Ha-ras p21 (Rey et al., Mol. Cell. Biol. 9 (1989) 3904) is equilibrated with an excess of (γ-^32 P) GTP (3000 Ci/mmol, Dupont, NEN Research Products, Boston, Mass.) in a buffer of Tris-HCl 20 mM (pH 7.5), 100 mM (NH4)2 SO4, 10 mM dithiothreitol, 1 mM MgCl2 and 50 mg/ml of bovine serum albumin for 30 minutes at 30° C. The incubation is stopped by applying the cooled solution to a PD10 column (Pharmacia) equilibrated by a buffer of Tris-HCl 20 mM (pH 7.5), 10 mM dithiothreitol, 10 mM MgCl2 and 1 mM phenylmethylsulphonyl fluoride, to eliminate the free nucleotides. The GTPase reaction is a variant of that described by Cassel and Selinger (Biochim. Biophys. Acta 452 (1976) 538). The reaction is started by addition of 10 μl (15 μg) of cytosol obtained by sonic treatment of strains of E. coli which express GAP (cf. Example E.2.1. below for the production of GAP) to 1 pmol of Ha-ras p21-(g^-32 P) GTP in the buffer Tris-HCl 20 mM (pH 7.5), NaCl 100 mM, dithiothreitol 10 mM, MgCl2 5 mM, GTP 100 μM and BSA 50 μg/ml, to obtain a final volume of 50 μl. […] After centrifugation at 1800 g, the radioactivity is measured in samples of 200 μl of the supernatant.

Molecule | Inhibition of the transformation activity of the ras protein (maturation of Xenopus eggs, % GVBD) [1] | Reduction of the transforming power of an oncogenic ras gene [2] | Relative GAP activity ([3]; None = 100, GTPase reaction 3 minutes at 30° C., 1 pmol Ha-ras p21-GTP, E. coli cytosol expressing GAP) | Effect on the GAP-p21 interaction ([3]; same GTPase test, result in words)
B1 | completely blocks maturation of ovocytes | capable of very greatly reducing the transforming power of an oncogenic ras gene | – | –
B2 | does not have the activity of the peptide according to the invention | – | – | –
B3 | capable of inhibiting the transformation activity of the ras protein | – | 100 | does not modify the functional interaction of GAP-p21
